B1: NRC3_wobSeed74_DR3_C13G_o1 (dsDNA)
DNA 1: GCTCTAGTTGGTGACGGAGGTCACACACGACGGGTAGCGATTGACAGCGTAGAATGAAGG
DNA 2: CCTTCATTCTACGCTGTCAATCGCTACCCGTCGTGTGTGACCTCCGTCACCAACTAGAGC
B2: NRC3_wobSeed38_DR1_A25C_o1 (dsDNA)
DNA 1: GCCCTGCTAGGTCAATGGTCAGCTCAAGCAGCTCGCGCGATTGACAGCGTAGAATGAAGG
DNA 2: CCTTCATTCTACGCTGTCAATCGCGCGAGCTGCTTGAGCTGACCATTGACCTAGCAGGGC
B3: NRC3_wobSeed2_DR0_C25T_o1 (dsDNA)
DNA 1: GCCCTAGTTGGTCAAGGTCACACATGCTATAGGTACGCGATTGACAGCGTAGAATGAAGG
DNA 2: CCTTCATTCTACGCTGTCAATCGCGTACCTATAGCATGTGTGACCTTGACCAACTAGGGC
B4: NRC3_wobSeed58_DR2_A7T_o1 (dsDNA)
DNA 1: GCATCGTAAGGTCGTGAGGTGAGTATACAGAAAGGCGCGATTGACAGCGTAGAATGAAGG
DNA 2: CCTTCATTCTACGCTGTCAATCGCGCCTTTCTGTATACTCACCTCACGACCTTACGATGC
B5: NRC3_wobSeed110_DR4_A9G_o1 (dsDNA)
DNA 1: GCTCTGCTGGGTCAACGATGGTCAGCTAATCTGCTAGCGATTGACAGCGTAGAATGAAGG
DNA 2: CCTTCATTCTACGCTGTCAATCGCTAGCAGATTAGCTGACCATCGTTGACCCAGCAGAGC
B6: NRC3_wobSeed34_DR1_T19A_o1 (dsDNA)
DNA 1: GCATCGAAAGGTCGAAGGAGAGTATACCCACCCGAAGCGATTGACAGCGTAGAATGAAGG
DNA 2: CCTTCATTCTACGCTGTCAATCGCTTCGGGTGGGTATACTCTCCTTCGACCTTTCGATGC
B7: NRC3_wobSeed34_DR1_G17A_o1 (dsDNA)
DNA 1: B6 DNA 1 with G17A, A19T
DNA 2: B6 DNA 2 with T42A, C44T
B8: NRC3_wobSeed72_DR2_A9G_o1 (dsDNA)
DNA 1: GCTCGAGTGGGTTACGGGGGCATTCAGGGATGAAGAGCGATTGACAGCGTAGAATGAAGG
DNA 2: CCTTCATTCTACGCTGTCAATCGCTCTTCATCCCTGAATGCCCCCGTAACCCACTCGAGC
B9: NRC3_wobSeed75_DR3_A25C_o1 (dsDNA)
DNA 1: GCTCTCGGAGGACACGAAGGTCAGCGCTTTCCAGAGGCGATTGACAGCGTAGAATGAAGG
DNA 2: CCTTCATTCTACGCTGTCAATCGCCTCTGGAAAGCGCTGACCTTCGTGTCCTCCGAGAGC
B10: NRC3_wobSeed17_DR0_T6A_o1 (dsDNA)
DNA 1: GCATAAGTAGGTTAGGGTCATTCAGAAAGTAGGGAAGCGATTGACAGCGTAGAATGAAGG
DNA 2: CCTTCATTCTACGCTGTCAATCGCTTCCCTACTTTCTGAATGACCCTAACCTACTTATGC
B11: NRC3_wobSeed82_DR3_C16G_o1 (dsDNA)
DNA 1: GCATCGAAAGGTCGAGGAGGTGAGTATACACCGTTTGCGATTGACAGCGTAGAATGAAGG
DNA 2: CCTTCATTCTACGCTGTCAATCGCAAACGGTGTATACTCACCTCCTCGACCTTTCGATGC
B12: NRC3_wobSeed82_DR3_T4A_o1 (dsDNA)
DNA 1: B11 DNA 1 with T4A, G16C
DNA 2: B11 DNA 2 with C45G, A57T
B13: NRC3_wobSeed82_DR3_T21A_o1 (dsDNA)
DNA 1: B11 DNA 1 with G16C, T21A
DNA 2: B11 DNA 2 with A40T, C45G
B14: NRC3_wobSeed123_DR5_A17C_o1 (dsDNA)
DNA 1: GCCCTCGGAGGACAACCGGAGGTCAGAGCTGCCAGAGCGATTGACAGCGTAGAATGAAGG
DNA 2: CCTTCATTCTACGCTGTCAATCGCTCTGGCAGCTCTGACCTCCGGTTGTCCTCCGAGGGC
B15: NRC3_wobSeed141_DR5_A25C_o1 (dsDNA)
DNA 1: GCAGTCAAAGTTCAGGACGAGGTACCGTAAAGCACGGCGATTGACAGCGTAGAATGAAGG
DNA 2: CCTTCATTCTACGCTGTCAATCGCCGTGCTTTACGGTACCTCGTCCTGAACTTTGACTGC
B16: NRC3_wobSeed87_DR3_C17G_o1 (dsDNA)
DNA 1: GCCGAACTAGGTCATCGAGGACAGTGAATACATTGAGCGATTGACAGCGTAGAATGAAGG
DNA 2: CCTTCATTCTACGCTGTCAATCGCTCAATGTATTCACTGTCCTCGATGACCTAGTTCGGC
B17: NRC3_wobSeed63_DR2_T24C_o1 (dsDNA)
DNA 1: GCCGAACTAGGTCACCAGGACAGCGAAGAGGTTGGAGCGATTGACAGCGTAGAATGAAGG
DNA 2: CCTTCATTCTACGCTGTCAATCGCTCCAACCTCTTCGCTGTCCTGGTGACCTAGTTCGGC
B18: NRC3_wobSeed86_DR3_G15T_o1 (dsDNA)
DNA 1: GCGCTGCTAGGTCATGTTGGTCAGCTAACGGGTACGGCGATTGACAGCGTAGAATGAAGG
DNA 2: CCTTCATTCTACGCTGTCAATCGCCGTACCCGTTAGCTGACCAACATGACCTAGCAGCGC
B19: NRC3_wobSeed15_DR0_G16C_o1 (dsDNA)
DNA 1: GCCGAACTAGGTCAACGACAGTGAATCTCCGCACGCGCGATTGACAGCGTAGAATGAAGG
DNA 2: CCTTCATTCTACGCTGTCAATCGCGCGTGCGGAGATTCACTGTCGTTGACCTAGTTCGGC
B20: NRC3_wobSeed5_DR0_A15G_o1 (dsDNA)
DNA 1: GCCCTTACGGGTCAGGGTTATAGCACGGGTGGTACGGCGATTGACAGCGTAGAATGAAGG
DNA 2: CCTTCATTCTACGCTGTCAATCGCCGTACCACCCGTGCTATAACCCTGACCCGTAAGGGC
B21: NRC3_wobSeed135_DR5_G4C_o1 (dsDNA)
DNA 1: GCCCAACTAGGTCATTGACAGGACAGTGAATAGTAAGCGATTGACAGCGTAGAATGAAGG
DNA 2: CCTTCATTCTACGCTGTCAATCGCTTACTATTCACTGTCCTGTCAATGACCTAGTTGGGC
B22: NRC3_wobSeed64_DR2_o1 (dsDNA)
DNA 1: GCTAGCCTAGGTCATTGGGCCAGTATAGTACGCATCGCGATTGACAGCGTAGAATGAAGG
DNA 2: CCTTCATTCTACGCTGTCAATCGCGATGCGTACTATACTGGCCCAATGACCTAGGCTAGC
B23: NRC3_wobSeed64_DR2_C21T_o1 (dsDNA)
DNA 1: B22 DNA 1 with C21T
DNA 2: B22 DNA 2 with G40A
B24: NRC3_wobSeed64_DR2_G17T_o1 (dsDNA)
DNA 1: B22 DNA 1 with G17T
DNA 2: B22 DNA 2 with C44A
B25: NRC3_wobSeed4_DR0_T25G_o1 (dsDNA)
DNA 1: GCCCTACTGGGCCAAGGTCATTGAGCAGTCAAAGCAGCGATTGACAGCGTAGAATGAAGG
DNA 2: CCTTCATTCTACGCTGTCAATCGCTGCTTTGACTGCTCAATGACCTTGGCCCAGTAGGGC
B26: NRC3_wobSeed88_DR3_T25C_o1 (dsDNA)
DNA 1: GCTAGCCTAGGTCATGCGGGCCAGCATAGTGTCGGCGCGATTGACAGCGTAGAATGAAGG
DNA 2: CCTTCATTCTACGCTGTCAATCGCGCCGACACTATGCTGGCCCGCATGACCTAGGCTAGC
B27: NRC3_wobSeed88_DR3_A4G_o1 (dsDNA)
DNA 1: B26 DNA 1 with A4G, C25T
DNA 2: B26 DNA 2 with G36A, T57C
B28: NRC3_wobSeed39_DR1_T23G_o1 (dsDNA)
DNA 1: GCCGAACTAGGTCAAAGGACAGGGAAAGGCGACGTAGCGATTGACAGCGTAGAATGAAGG
DNA 2: CCTTCATTCTACGCTGTCAATCGCTACGTCGCCTTTCCCTGTCCTTTGACCTAGTTCGGC
B29: NRC3_wobSeed39_DR1_G17A_o1 (dsDNA)
DNA 1: B28 DNA 1 with G17A, G23T
DNA 2: B28 DNA 2 with C38A, C44T
B30: NRC3_wobSeed3_DR0_A22G_o1 (dsDNA)
DNA 1: GCGCTCGGAGGACAAGGTCAGGGCTTTGTCCGTAGAGCGATTGACAGCGTAGAATGAAGG
DNA 2: CCTTCATTCTACGCTGTCAATCGCTCTACGGACAAAGCCCTGACCTTGTCCTCCGAGCGC
B31: NRC3_wobSeed101_DR4_A24C_o1 (dsDNA)
DNA 1: GCCCTTACGGGTCACTCCAGGTTCTAGCATCGGAGTGCGATTGACAGCGTAGAATGAAGG
DNA 2: CCTTCATTCTACGCTGTCAATCGCACTCCGATGCTAGAACCTGGAGTGACCCGTAAGGGC

Where a chain is given by its changes, count along the chain named.

Sequence of RARg:RXRa (P13631 whole entry, chain 1 of 2): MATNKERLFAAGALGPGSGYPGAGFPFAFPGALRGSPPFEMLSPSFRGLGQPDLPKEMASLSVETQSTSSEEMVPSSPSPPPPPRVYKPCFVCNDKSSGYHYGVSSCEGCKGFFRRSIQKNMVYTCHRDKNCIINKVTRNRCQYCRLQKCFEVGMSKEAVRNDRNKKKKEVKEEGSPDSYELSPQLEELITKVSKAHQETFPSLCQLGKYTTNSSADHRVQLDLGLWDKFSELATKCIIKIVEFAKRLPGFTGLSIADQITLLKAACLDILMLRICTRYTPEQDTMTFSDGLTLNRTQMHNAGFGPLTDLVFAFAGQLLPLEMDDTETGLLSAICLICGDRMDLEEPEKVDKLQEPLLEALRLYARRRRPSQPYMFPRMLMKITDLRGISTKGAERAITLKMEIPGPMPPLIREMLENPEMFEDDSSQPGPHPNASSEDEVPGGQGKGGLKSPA
Sequence of RARg:RXRa (P19793 whole entry, chain 2 of 2): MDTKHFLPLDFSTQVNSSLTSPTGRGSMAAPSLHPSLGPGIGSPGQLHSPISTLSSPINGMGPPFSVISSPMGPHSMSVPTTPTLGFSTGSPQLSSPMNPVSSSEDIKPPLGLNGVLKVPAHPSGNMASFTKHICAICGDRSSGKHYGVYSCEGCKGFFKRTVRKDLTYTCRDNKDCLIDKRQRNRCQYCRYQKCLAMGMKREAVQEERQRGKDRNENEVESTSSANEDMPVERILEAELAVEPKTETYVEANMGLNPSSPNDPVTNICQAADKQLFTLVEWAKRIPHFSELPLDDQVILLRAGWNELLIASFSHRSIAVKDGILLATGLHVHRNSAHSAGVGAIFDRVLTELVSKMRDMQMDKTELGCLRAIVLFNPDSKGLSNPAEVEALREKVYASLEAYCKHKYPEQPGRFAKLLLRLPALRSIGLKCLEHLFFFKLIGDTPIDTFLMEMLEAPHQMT

For the data set, the target named is RARg:RXRa (Homo sapiens, UniProt P13631;P19793 full;full). The data set can be described thus: no ligand; PBM; 270 nM : 90 nM RXRa; PBS pH 7.4, 2% milk, 0.02% Triton X-100, 1 mM DTT, BSA, 0.4 mg/ml salmon testes DNA. As to conditions: tags: His kept;His cleaved; copies: 1;1; label: surface-attached array probe. Put shortly:
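Custom Agilent 4×180K protein-binding microarrays carried double-stranded probes. Their 34-nt variable regions held direct-repeat seeds, single-nucleotide variants, half-site ablations and random human genomic background sequences. Arrays were incubated 1 h with ligand-free nuclear receptor dimers in PBS pH 7.4, 2% milk, 0.02% Triton X-100, 1 mM DTT, 0.2 mg/mL BSA and 0.4 mg/ml salmon testes DNA. Antibodies against each partner (one per run) detected binding, and scanned fluorescence was regression-normalized. Binding z-scores use random background probes as reference.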
With B1, the binding signal was 3.87 PBM z-score against 500 random probes.
Take B2: the binding signal was 3.58 PBM z-score against 500 random probes.
The value for B3 was 4.31 PBM z-score against 500 random probes; that for B4 was 3.36 PBM z-score against 500 random probes; that for B5 was 3.45 PBM z-score against 500 random probes.
Take B6: the binding signal was 3.65 PBM z-score against 500 random probes.
With B7, the binding signal was 3.26 PBM z-score against 500 random probes.
Regarding B8, the binding signal is 3.31 PBM z-score against 500 random probes.
The value for B9 was 3.49 PBM z-score against 500 random probes.
Under B10 stands 4.22 PBM z-score against 500 random probes; under B11, 4.27 PBM z-score against 500 random probes.
The value for B12 was 4.09 PBM z-score against 500 random probes.
As for B13, the binding signal is 4.02 PBM z-score against 500 random probes.
With B14, the binding signal is 3.83 PBM z-score against 500 random probes.
As to B15, the binding signal was 4.17 PBM z-score against 500 random probes.
Turning to B16, the binding signal was 4.03 PBM z-score against 500 random probes.
Under B17 stands 4.29 PBM z-score against 500 random probes.
The value for B18 was 3.75 PBM z-score against 500 random probes; that for B19 was 3.81 PBM z-score against 500 random probes.
The value for B20 was 3.72 PBM z-score against 500 random probes; that for B21 was 4.34 PBM z-score against 500 random probes; that for B22 was 3.78 PBM z-score against 500 random probes.
Turning to B23, the binding signal is 3.53 PBM z-score against 500 random probes.
Take B24: the binding signal was 3.69 PBM z-score against 500 random probes.
For the molecule B25, the binding signal is 3.95 PBM z-score against 500 random probes.
Under B26 stands 3.97 PBM z-score against 500 random probes; under B27, 3.93 PBM z-score against 500 random probes; under B28, 4.06 PBM z-score against 500 random probes.
The value for B29 was 3.41 PBM z-score against 500 random probes; that for B30 was 3.61 PBM z-score against 500 random probes.
In the case of B31, the binding signal was 4.14 PBM z-score against 500 random probes.
